Results published in patent US20240084032A1 (BLUEFIN BIOMEDICINE, published 2024).
Residue numbers refer to the chain shown, from its start.

B1: 38E11-vcMMAE (other)
VH: EVQLLESGGGLVQPGGSLRLSCAASGFTFSNYAMNWVRQAPGKGLEWVSAISGGGGSTYYADSVKGRFTISRDNSKNTLYLQMNSLRAEDTAVYYCAKESITMVRGVMDYYGMDVWGQGTTVTVSS
VL: DIQLTQSPSFLSASVGDRVTITCRASQGISSYLAWYQQKPGKAPKLLIYAASTLQGGVPSRFSGSGSGTEFTLTISSLQPEDFATYYCQHLNRFPRTFGQGTKVEIK
modifications: maleimidocaproyl-valine-citrulline-p-aminobenzoyloxycarbonyl-MMAE on hinge region cysteine thiols, positions not given; DAR 3.9
B2: 38E11-PBD (other)
VH: B1 VH
VL: B1 VL
modifications: MA-PEG8-VA-PAB-SG3199 (PBD) on hinge region cysteine thiols, positions not given; DAR 2.3
B3: 05A8 (antibody, V domains shown)
VH: EVQLLESGGGLVQPGGSLRLSCAASGFTFSNYAMSWVRQAPGKGLEWVSAISGRGGSTYYADSVKGRFTISRDNSKNTLYLQMNSLRAEDTAVYYCAKDIVVVPAAKGYVMDAWGQGASVTVSS
VL: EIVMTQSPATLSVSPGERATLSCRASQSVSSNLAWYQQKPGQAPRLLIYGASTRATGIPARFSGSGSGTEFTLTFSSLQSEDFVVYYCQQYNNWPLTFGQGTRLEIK
B4: 12C2 (antibody, V domains shown)
VH: QEQLVESGGGVVQPGRSLRLSCVTSGFTFSSYGMHWVRQAPGKGLEWVAVIWYDGTNKYYADTVKGRFTISRDNSKNTLYLQMNSLRAEDTGVYYCAREGCDTISCPYYYYGMDVWGQGTTITVSS
VL: DILMTQSPSSLSASVGDRVTITCRASQGINYYLAWYQQKPGKVPKLLIYTASTLQSGVPSRFSGSGSGTDFTLTISSLQPEDVATYFCQKYNSAPFTFGPGTKLEIK
B5: 03B05 (antibody, V domains shown)
VH: QVQLVESGGGVVQPGRSLRLSCAASGFTFSSYGMHWVRQAPGKGLEWVAIIWYDGSNKYYADSVKGRFTISRDNSKNTLYLQMNSLRAEDTAVYYCAKDPSYSSGYYLFDFWGQGTLVTVSS
VL: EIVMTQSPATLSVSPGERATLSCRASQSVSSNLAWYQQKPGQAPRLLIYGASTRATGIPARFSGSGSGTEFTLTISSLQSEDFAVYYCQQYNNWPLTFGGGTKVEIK
notes: also called 3B5
B6: 03C05 (antibody, V domains shown)
VH: EVQVLESGGGLVQPGGSLRLSCAASGFTFSSYVMSWVRQAPGKGLEWVSGISGSGGSTHYADSVKGRFTISRDNSKNTLYLQMNSLRAEDTALYYCAQQWPQGYWGQGTLVTVSS
VL: B4 VL with L3Q, G28D, N30S, Y31I, Y36F, L46V, T50A, S67T
notes: also called 3C5
B7: 27H10 (antibody, human IgG1, V domains shown)
VH: QVQLVQSGAEVKKPGSSVKVSCKASGGTFSSYAMSWVRQAPGQGLEWMGGIIPILGTTNYAQKFQGRVTITADKSTSTAYMELSSLRSEDTAVYYCAREGLYAFDIWGQGTMVTVSS
VL: DIQMTQSPSSLSASVGDRVTITCRASQSISSYLNWYQQKPGKAPKFLIYVASSLQSGVPSRFSGRGSGTDFTLTISSLQPEDFATYYCQQSYSTPWTFGQGTKVEIK
notes: also called human antibody 27H10
B8: 3B11 (antibody, human IgG1, V domains shown)
VH: QVQLQQWDAGLLKPSETLSLTCAVYGGSFSSYYWSWIRQPPGKGLEWIGEINHSGSTSYNPSLKSRVTISIDTSKNQFSLKLNSMTAADTAVYFCAASPYFDYWGQGTLVTVSS
VL: B1 VL with G56S, H90Q, R93S, F94Y
notes: also called 03B11; 3B111
B9: 04G06 (antibody, V domains shown)
VH: QVQLVESGGGVVQPGRSLRLSCVVSGFTLSSYGMHWVRQAPGKGLEWVAVIWYDGSDKYYADSVKGRFTISRDNSKNTLYLQMNSLRAEDTAVYYCARDDWGFDYWGQGTLVTVSS
VL: DIQLTQSPSFLSASVGDRVTITCRASQDISNYLAWYQQKPGKAPKLLISASTLQSGVPSRFSGSGSGTEFILTISSLQPEDFATYYCQHLNSYPFGQGTKVEIK
notes: also called 4G6
B10: 42C5 (antibody, V domains shown)
VH: EVQLVESGGGLVQPGGSLRLSCAASGFTFSRYWMNWVRQAPGKGLEWVANIKQDGSEKDYVDSVKGRFTISRDNAKNSLFLQMSSLRAEDTAVYYCARVMYSSGWSFDYWGQGTLVTVSS
VL: DIVMTQSPLSLPVTPGEPASISCRSSRSLLHSSGYNFLDWFLQKPGQSPQLLIFLGSDRASGVPDRFSGSGSGTDFTLKISRVETEDVGVYYCMQALQTPITFGQGTRLEIK
B11: 47G7 (antibody, human IgG1, V domains shown)
VH: B10 VH with R31S, N35S, F80Y, S84N, A88V, V99E, M100G, Y101G, S106T
VL: B10 VL with R27Q, Y35H, F41Y, F54Y, D58N, T85A, I101P, R108K
notes: also called human antibody 47G7
B12: 18C6 (antibody, human IgG1, V domains shown)
VH: QVQLQESGPGQVKPSETLSLTCTVSGGSISSSFWSWIRQPPGKGLEWIGYIYYSESTNYNPSLKRRVTLSVDTSKNQFSLKLTSVTTADTAVYYCARNIGVAGLFDYWGQGTLVTVSS
VL: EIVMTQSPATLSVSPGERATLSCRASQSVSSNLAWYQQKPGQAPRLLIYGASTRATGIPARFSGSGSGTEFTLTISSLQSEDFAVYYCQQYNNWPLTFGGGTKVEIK
notes: also called 18C06; human antibody 18C6
B13: 14H4 (antibody, V domains shown)
VH: EVQLLESGGDLVQPGGSLRLSCAASGFTFNSYAMSWVRQAPGKGLEWVSVLSGSGGDIHYADSVKGRFTVSRDNSKNMLYLQMNSLRAEDTAVYFCAQQWPQGYWGQGTLVTVSS
VL: B4 VL with L3Q, N30S, Y31I, Y36F, T50A, F87Y, L104V
B14: 10E2 (antibody, V domains shown)
VH: QVQLVESGGGVVQPGRSLRLSCAASGFTFSSYGMHWVRQAPGKGLEWVAVVWYDGTIKYYADSVKGRFTISRDNPKNTLYLQMNSLRAEDTAVYYCASQYSSGWHTDFFDVWGQGTMVTVSS
VL: DIQMTQSPSTLSASVGDRVTITCRASQSISTWLAWYQQKPGKAPKFLIYKASSLESGVPSRFSGSGSGTEFTLTISSLQPDDFATYYCQQYSGYSLTFGGGTKVEIK
notes: also called human antibody 10E2
B15: 01E2 (antibody, V domains shown)
VH: QVQLVESGGGVVQPGRSLRLSCAASGFTFSSYGMHWVRQAPGKGLEWVAVIWYAGSNKYYADSVKGRFTISRDNSKNTLYLQMNSLRAEDTAVYYCAGWDFDYWGQGTLVTVSS
VL: EIVLTQSPATLSLSPGERATLSCRASQTVPNYLAWYQQKPGQAPRLLIYDASNRATDIPARFSGSGSGTDFTLTISSLEPEDFAVYYCQQRANWPPITFGQGTRLEIK
B16: 41A9 (antibody, human IgG1, V domains shown)
VH: QVQLQQWGAGLLKPSETLSLTCAVYGGSFSDYYWSWIRQPPGKGLEWIGEINHSGSTNYNPSLKSRVTISVDTSKNQFSLKLSSVTAADTAVYYCARDYDVLTGHFYYYYGMDVWGQGTTVTVSS
VL: EIVLTQSPATLSLSPGERATLSCRASQSVRRYLAWYQQKPGQAPRLLIYDASNRATGIPARFSGSGSGTDFTLTISSLEPEDFAVYYCQQRNNWPLTFGGGTKLEIK
notes: also called 41A09; human antibody 41A9
B17: 02F3 (antibody, V domains shown)
VH: QVQLVESGGGVVQPGRSLRLSCAASGFSFSDYGIHWVRQAPGKGLEWVAVIWYDGSNKYYADSVKGRFTISRDNSKNTLYLQVNSLIAEDTAVYYCARDRGYSSGWYVDYYYYGMDVWGQGTTVTVSS
VL: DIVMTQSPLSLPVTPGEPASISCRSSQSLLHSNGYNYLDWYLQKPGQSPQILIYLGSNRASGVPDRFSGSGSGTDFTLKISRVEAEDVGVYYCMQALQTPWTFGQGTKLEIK
B18: 50D6 (antibody, V domains shown)
VH: EVQVLESGGGLVQPGGSLRLSCAASGFTFSNYAMNWVRQAPGKGLEWVSAISGGGGSTYYADSVKGRATISRDNSENTLYLQMNSLRAEDTAVYYCAKTSSGWYDSYYDYYGLDVWGQGTTVTVSS
VL: B1 VL with S31N, A43V, A51V, G56S, H90Q, R93S, F94Y, R96F, Q100G, V104L
B19: 38E11 (antibody, human IgG1, V domains shown)
VH: B1 VH
VL: B1 VL
notes: also called human antibody 38E11

Columns and labels:
[1] = target: human CDCP1 endogenously expressed on cancer cell lines (human, UniProt Q9H5V8 30-836); test: cell-based or functional assay
Cynomolgus monkey CDCP1 = target: T1, Cynomolgus monkey CDCP1 (Macaca fascicularis, UniProt A0A2K5VLA8); test: Octet BLI, Ab on Protein A sensor, recombinant CDCP1 analyte
T1 construct: recombinant ectodomain from CHO cells; construct not given; also called cyCDCP1; BBP468

[2] = target: T2, recombinant human CDCP1 ECD (AA30-667) with C-terminal His tag (human, UniProt Q9H5V8 30-667); test: as above
T2 construct: range 30-667; also called FL-ECD; recombinant FL-ECD
Description: Affinity: The affinity of antibodies to various recombinant CDCP1 molecules was determined on an Octet Red (Pall, ForteBio) instrument. After loading reagents into a 96-well plate, the Octet Red with Protein A-conjugated biosensors was programmed as follows: 30 seconds for baseline #1; 120 seconds to immobilize the antibody; 30 seconds for baseline #2; 300 seconds for association of antibody to recombinant CDCP1; and 300-600 seconds for dissociation of recombinant CDCP1 from the antibody.
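For Kd in this document: antibody captured for 120 s on the sensor, followed by 300 s association with CDCP1 and a 300–600 s dissociation phase.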

Binder | Kd (Cynomolgus monkey CDCP1) [nM] | Kd [2] [nM] | further results
B1 |  |  | EC50 of killing, Cal-12T NSCLC cells, CellTiter Glo, 96 hrs [1]: > 1 µg/mL; EC50 of killing, DU145 prostate cancer cells, CellTiter Glo, 96 hrs [1]: 1 µg/mL; EC50 of killing, H1650 NSCLC cells, CellTiter Glo, 96 hrs [1]: > 1 µg/mL; EC50 of killing, HCC15 NSCLC cells, CellTiter Glo, 96 hrs [1]: > 1 µg/mL; EC50 of killing, HCC44 NSCLC cells, CellTiter Glo, 96 hrs [1]: > 1 µg/mL; EC50 of killing, HCC78 NSCLC cells, CellTiter Glo, 96 hrs [1]: > 1 µg/mL; EC50 of killing, HCC827 NSCLC cells, CellTiter Glo, 96 hrs [1]: > 1 µg/mL; EC50 of killing, PC3 prostate cancer cells, CellTiter Glo, 96 hrs [1]: 0.1 µg/mL
B2 |  |  | EC50 of killing, Cal-12T NSCLC cells, CellTiter Glo, 96 hrs [1]: > 1 µg/mL; EC50 of killing, DU145 prostate cancer cells, CellTiter Glo, 96 hrs [1]: 0.1 µg/mL; EC50 of killing, H460 NSCLC cells, CellTiter Glo, 96 hrs [1]: ~0.1 µg/mL; EC50 of killing, H1299 NSCLC cells, CellTiter Glo, 96 hrs [1]: > 1 µg/mL; EC50 of killing, H1650 NSCLC cells, CellTiter Glo, 96 hrs [1]: ~1 µg/mL; EC50 of killing, HCC44 NSCLC cells, CellTiter Glo, 96 hrs [1]: ~1 µg/mL; EC50 of killing, HCC827 NSCLC cells, CellTiter Glo, 96 hrs [1]: > 1 µg/mL; EC50 of killing, LNCAP prostate cancer cells, CellTiter Glo, 96 hrs [1]: 0.01 µg/mL; EC50 of killing, PC3 prostate cancer cells, CellTiter Glo, 96 hrs [1]: 1 µg/mL
B3 | 18 | 7 | 
B4 | 8 | 1 | 
B5 | 75 | 17 | 
B6 | 80 | 20 | 
B7 | 45 | 45 | 
B8 | > 500 | 60 | 
B9 | 27 | 4 | 
B10 | 12 | 2 | 
B11 | 500 | 35 | 
B12 | 190 | 25 | 
B13 | 5 | < 1 | 
B14 | 1 | < 1 | 
B15 | > 500 | 20 | 
B16 | 13 | 6 | 
B17 | 83 | 8 | 
B18 | < 1 | < 1 | 
B19 | 4 | 2 | 
